The record followed here is patent US20200299408A1 (Genentech, published 2020).

Broadly, the Kd is the constant that tells how readily two partners part at equilibrium. The low end stands for higher affinity, the high end for lower affinity.

The test addresses T1, single chain human CD3ε-26mer-CD3γ (CD3εγ) (human).
T1 construct: also called human CD3εγ
T1 chain: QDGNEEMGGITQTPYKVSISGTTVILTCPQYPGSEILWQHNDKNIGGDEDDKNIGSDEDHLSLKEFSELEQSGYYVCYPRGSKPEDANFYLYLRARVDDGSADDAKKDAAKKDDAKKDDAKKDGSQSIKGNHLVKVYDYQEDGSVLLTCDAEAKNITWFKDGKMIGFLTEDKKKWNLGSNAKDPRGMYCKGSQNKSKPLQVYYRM
Description: SPR (Biacore 4000): CD3εγ (row WT) captured from the periplasmic fraction on UCHT1v9; analyte a bispecific antibody with one 38E4v1 arm and one irrelevant arm, 0.39-100 nM. The method, then:
The secreted CD3εγ variants were captured from the crude periplasmic fraction using anti-CD3 antibody UCHT1v9. UCHT1v9 was immobilized on a CM5 serios S chip through amine coupling using the anti-human IgG (Fc) antibody capture kit (BR-1008-39) from GE Healthcare. SPR measurements were performed on the Biacore 4000 instrument, utilizing kinetic evaluation software. In order to measure monovalent binding affinities, anti-CD3 bispecific antibodies were used in which one arm was the anti-CD3 to be tested and the arm recognized an irrelevant antigen. The bispecific anti-CD3 antibodies were passed over the captured supernatant in a concentration series of two-fold dilutions from 0.39 to 100 nM. The resulting kinetics (FIG. 13D) were measured and calculated using Biacore 4000 BIAevaluation software (product code 28-9664-57).
A general note: SPR reads the build-up and loss of mass on a sensor chip optically.

B1: hu38E4.v1 Fab (Fab, V domains shown)
VH: EVQLVQSGAEVKKPGASVKVSCKASGFTFTSYYIHWVRQAPGQGLEWIGWIYPENDNTKYNEKFKDRVTITADTSTSTAYLELSSLRSEDTAVYYCARDGYSRYYFDYWGQGTLVTVSS
VL: DIVMTQSPDSLAVSLGERATINCKSSQSLLNSRTRKNYLAWYQQKPGQSPKLLIYWTSTRKSGVPDRFSGSGSGTDFTLTISSLQAEDVAVYYCKQSFILRTFGQGTKVEIK
notes: Humanized anti-CD3 Fab; Point mutants of it were expressed as Fabs in HEK293 cells
B1: the affinity, expressed as Kd, was 3 nM.
